The test has as its target GST‐LC3B (human, UniProt Q9GZQ8 1-120). The experiment in a line: AlphaScreen or HTRF. For orientation: In Alpha technology, singlet oxygen from a donor bead excites a nearby acceptor bead.

In turn, SGGDDDWTHLS [LIRtide] registered an IC50 of 1700 nM.

What is called IC50 is the concentration needed to halve the response being measured. Lower therefore signals higher potency.

The values above are taken from paper PMC10751729 (Protein Science : A Publication of the Protein Society, 2024).
